This is an account of results in paper PMC314469, “Protein Interaction Networks by Proteome Peptide Scanning” (PLoS Biology, 2004).

To fix the notation:
T1: Abp1 SH3 (ABP1_YEAST), P15891
T1 chain: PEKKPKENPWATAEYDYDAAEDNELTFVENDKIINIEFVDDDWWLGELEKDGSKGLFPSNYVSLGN

The target of the experiment is T1, Abp1 SH3 (ABP1_YEAST), P15891. Kind of experiment: SPOT array.
Turning to EYGHHARPDSKRP [YMR268C 2-14], the normalised SPOT signal, Boehringer light units (BLU); mean over the file's lines of this peptide was 61.2.
In the case of EPPQDQAPSLPPKP [YCL008C 154-167] it was 156; in that of FIQQMMDPSKAKP [YPL082C 1249-1261], 230; in that of ETELGHVPLVERP [YDL079C 472-484], 136.
In the case of FFQLPPVSKDPNRP [YML061C 379-392] it was 186; in that of ERRKQLKKQGPKRP [YKL032C 351-364], 77.9.
The same measure for FASKVNYPVLIRP [YJR109C 723-735]: 156; for FEMVTEVPIPRRP [YGR156W 132-144]: 526; for ERLQSQPPRPPRP [YGR268C 21-33]: 10400.
For the molecule ETGVSIKNPRPSRP [YPR096C 4-17], the normalised SPOT signal, Boehringer light units (BLU); mean over the file's lines of this peptide is 615.
In the case of FDIVFPAPKGKRP [YBR034C 258-270], the normalised SPOT signal, Boehringer light units (BLU); mean over the file's lines of this peptide stood at 284.
With EVRKVYIPKVVKP [YJR143C 526-538], the normalised SPOT signal, Boehringer light units (BLU); mean over the file's lines of this peptide was 250.
For the molecule FLDVLKIKPLPYKP [YER093C 581-594], the normalised SPOT signal, Boehringer light units (BLU); mean over the file's lines of this peptide was 316.
The same measure for FEKGPRMPSRGRP [YPR171W 143-155]: 2280; for ERLERQFEEVPFRP [YPL027W 171-184]: 201.
In the case of ERSKNLIPPAFRP [YGL173C 598-610] it was 488; in that of FDSQFSAPFNGRP [YBL014C 791-803], 168.
In the case of EQIVLGQPKTNRP [YDR062W 281-293] it was 87.7; in that of FDYIVTREFRPTKP [YOR131C 125-138], 83.2; in that of ETQPIQNFQPPPKP [YBR108W 650-663], 82.5.
As for ESLKLYYRHRPQKP [YOL164W 141-154], the normalised SPOT signal, Boehringer light units (BLU); mean over the file's lines of this peptide was found to be 146.
The same measure for EQAPTGLVLEPSKP [YBR284W 656-669]: 51.6; for ESLNLQFQAHPPKP [YKR050W 395-408]: 27.2.
The same measure for EPVTKERPHFNKP [YER161C 148-160]: 534.
The same measure for EQEEFTSPYFGRP [YIL031W 818-830]: 67.4.
The molecule ESASHETPTDLRP [YKL204W 262-274] returned a normalised SPOT signal, Boehringer light units (BLU); mean over the file's lines of this peptide of 147.
The same measure for EQKLPTALLSPLRP [YCL051W 196-209]: 126; for FKRAGLIPIRLRP [YDR072C 45-57]: 411; for EYKYSRPPYNFKP [YBR043C 498-510]: 155.
The same measure for ESKMSLAPHEYKP [YGR097W 219-231]: 97.4.
The same measure for ETLWDLPPKFPEKP [YDR444W 182-195]: 55.6; for FDGKPTATPSPFRP [YMR153W 197-210]: 101.
Take ESFSSGSLSPPSRP [YDR348C 88-101]: the normalised SPOT signal, Boehringer light units (BLU); mean over the file's lines of this peptide was found to be 48.8.
In the case of FGLEQISPAQKKP [YDL217C 6-18] it was 63; in that of ESIDASKPEKVKP [YFL025C 369-381], 132.
Molecule FKVMVANPRKSKP [YKL189W 299-311] displayed a normalised SPOT signal, Boehringer light units (BLU); mean over the file's lines of this peptide of 2270.
The same measure for FDKKNETPRKRKP [YBL046W 314-326]: 173.
The same measure for FASDSLLDLSPIKP [YCL018W 111-124]: 73.8; for EVVKILRESNPPRP [YJR010W 379-392]: 39.2; for FIDPSLRPIIVKP [YPR056W 253-265]: 10.5.
In the case of FIDDLKQPKYVRP [YPL070W 96-108] it was 48.4; in that of FINVSHSPLVPKP [YHR034C 60-72], 76.6.
Regarding EVRDLWLSILPTKP [YBR115C 851-864], the normalised SPOT signal, Boehringer light units (BLU); mean over the file's lines of this peptide was determined as 86.6.
The same measure for ESKLSSLIIPPSKP [YJL193W 97-110]: 105; for EYLDQKNPQKEKP [YDR293C 662-674]: 52.7; for ETVTNSGGLQPLKP [YOR329C 474-487]: 54.3.
FEEPEDFLPPPPKP [YLR285W 14-27] gave a normalised SPOT signal, Boehringer light units (BLU); mean over the file's lines of this peptide of 55.3.
In the case of FAEKVGYPVLVRP [YJL130C 1124-1136] it was 85.3; in that of FFPNVNSPSVNKP [YNR045W 370-382], 101.
The same measure for ERPLPDLPSTIKP [YKR027W 750-762]: 106; for ESFRERPLEPPRKP [YDR448W 139-152]: 675.
Molecule EVPMFVNPANAKP [YHL038C 181-193] registered a normalised SPOT signal, Boehringer light units (BLU); mean over the file's lines of this peptide of 70.8.
In the case of FKRSIGASHAPLKP [YER161C 100-113] it was 145.
In the case of FSYPISSPINFKP [YPR164W 96-108] it was 115.
